Here are results for one molecule from patent US20040014138A1 (published 2004).

In this assay the target is T1, bovine serum albumin (bovine, UniProt P02769 25-607).
T1 construct: Negative control coating protein in the enzyme capture assay; also called BSA
Briefly: enzyme capture assay, coated wells, APC-spiked plasma, chromogenic read-out. How it is done: As negative controls, microtiter plate wells were coated with either 5 μg/ml HPC4 monoclonal antibody or 1% bovine serum albumin (BSA) in the same buffer. The plates were then blocked for 1 hour at 37° C. or overnight at 4° C. with 200 μl of blocking buffer (coating buffer containing 1% BSA). The solutions were gently removed from the plates by vacuum.
To generate a standard curve for the quantitative measurement of APC in plasma, increasing amounts of APC (from 0 to 250 ng/ml) were spiked into normal pooled plasma containing 20 mM Hepes, pH 7.5, 2 units/ml heparin, 20 mM benzamidine, and 10 mM CaCl₂. The spiked plasma (100 μl) were transferred to the plates and incubated at room temperature for 1 hour. The wells were then washed three times with wash buffer (20 mM Hepes, pH 7.5, 150 mM NaCl, 0.05% Tween-20, and 5 mM CaCl₂). The chromogenic activity of APC was determined by the addition of 100 μl of Spectrozyme PCa (1 mM) in 20 mM Hepes, pH 7.5, 150 mM NaCl, 5 mM CaCl₂. The plates were immediately placed at 37° C., and substrate hydrolysis was monitored at 405 nm over time using a Vmax microplate reader (Molecular Devices Corp, Sunnyvale, Calif.). All samples were assayed in duplicates or triplicates.

T1 sequence (P02769 25-607 limits assumed): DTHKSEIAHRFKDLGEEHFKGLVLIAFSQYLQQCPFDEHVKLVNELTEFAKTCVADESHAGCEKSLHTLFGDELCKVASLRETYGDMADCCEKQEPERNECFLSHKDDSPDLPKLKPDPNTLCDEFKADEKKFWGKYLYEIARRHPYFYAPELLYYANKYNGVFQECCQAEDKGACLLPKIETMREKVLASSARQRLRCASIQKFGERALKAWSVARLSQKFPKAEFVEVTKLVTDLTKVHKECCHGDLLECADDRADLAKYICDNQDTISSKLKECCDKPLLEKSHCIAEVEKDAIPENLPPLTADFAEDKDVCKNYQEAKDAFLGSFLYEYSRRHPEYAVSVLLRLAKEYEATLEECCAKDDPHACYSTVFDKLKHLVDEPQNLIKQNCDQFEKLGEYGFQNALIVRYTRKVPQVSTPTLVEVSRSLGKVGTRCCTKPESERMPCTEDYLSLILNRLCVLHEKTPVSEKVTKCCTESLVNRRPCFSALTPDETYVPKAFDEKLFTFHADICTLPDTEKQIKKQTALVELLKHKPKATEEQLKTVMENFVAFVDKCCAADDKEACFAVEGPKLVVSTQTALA

B1: human activated protein C (enzyme)
chain 1: ANSFLEELRHSSLERECIEEICDFEEAKEIFQNVDDTLAFWSKHVDGDQCLVLPLEHPCASLCCGHGTCIDGIGSFSCDCRSGWEGRFCQREVSFLNCSLDNGGCTHYCLEEVGWRRCSCAPGYKLGDDLLQCHPAVKFPCGRPWKRMEKKRSHL
chain 2: LIDGKMTRRGDSPWQVVLLDSKKKLACGAVLIHPSWVLTAAHCMDESKKLLVRLGEYDLRRWEKWELDLDIKEVFVHPNYSKSTTDNDIALLHLAQPATLSQTIVPICLPDSGLAERELNQAGQETLVTGWGYHSSREKEAKRNRTFVLNFIKIPVVPHNECSEVMSNMVSENMLCAGILGDRQDACEGDSGGPMVASFHGTWFLVGLVSWGEGCGLLHNYGVYTKVSRYLDWIHGHIRDKEAPQKSWAP
notes: the whole natural protein is named as one piece; also called APC
Take B1: the binding result is given as “no binding (tested: 1% coating)”.
